{"source": "patent US20250145716A1", "about": "(RAKUTEN MEDICAL, published 2025)", "key": {"[1]": {"target": "T1, 6xHis-tagged huPD-L1 (human, UniProt Q9NZQ7 19-238)", "T1 construct": "also called human PD-L1 (RD Systems 9049-B7); extracellular domain of human PD-L1 fused to a His tag; not shown: 6xHis tag", "T1 sequence (Q9NZQ7 19-238)": "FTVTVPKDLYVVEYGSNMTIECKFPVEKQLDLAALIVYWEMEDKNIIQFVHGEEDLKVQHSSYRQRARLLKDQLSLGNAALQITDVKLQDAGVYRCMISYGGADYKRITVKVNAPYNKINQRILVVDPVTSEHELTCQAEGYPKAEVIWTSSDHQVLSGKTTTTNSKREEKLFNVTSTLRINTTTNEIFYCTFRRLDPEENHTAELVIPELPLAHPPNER", "test": "ELISA, plate-coated 6xHis huPD-L1, OD 450 nm", "procedure": "(§1) Hybridoma supernatants were tested for binding to huPD-L1, cyPD-L1, and muPD-L1 by ELISA. Briefly, 30 μL 6xHis-tagged huPD-L1, cyPD-L1, or muPD-L1 (1 μg/mL in PBS) were immobilized in wells of a 96-well assay plate overnight at 4° C. After washing and blocking steps, 30 μL of antibody supernatant were added to the plate and incubated at room temperature for 1 hr. Bound human antibody was detected using horseradish peroxidase (HRP)-conjugated goat anti-human Fc (Invitrogen Cat. No. 109-035-097; diluted 1:5000) or goat anti-mouse Fc HRP (Invitrogen Cat. No. 115-035-071) as a control. Bound antibody was detected with 1-Step Ultra™ TMB-ELISA Substrate (ThermoFisher Scientific Cat. No. 34029). When the reaction was complete the reaction was stopped, and the plate was read at 450 nm."}, "[2]": {"target": "T2, human PD-L1 expressed on cells (human, UniProt Q9NZQ7 19-290)", "T2 construct": "whole, on cells; One entry covers all human PD-L1-bearing cells; also called huPD-L1 on CHO cells (CHO-hPD-L1); PD-L1 on A431 cells", "T2 sequence (Q9NZQ7 19-290)": "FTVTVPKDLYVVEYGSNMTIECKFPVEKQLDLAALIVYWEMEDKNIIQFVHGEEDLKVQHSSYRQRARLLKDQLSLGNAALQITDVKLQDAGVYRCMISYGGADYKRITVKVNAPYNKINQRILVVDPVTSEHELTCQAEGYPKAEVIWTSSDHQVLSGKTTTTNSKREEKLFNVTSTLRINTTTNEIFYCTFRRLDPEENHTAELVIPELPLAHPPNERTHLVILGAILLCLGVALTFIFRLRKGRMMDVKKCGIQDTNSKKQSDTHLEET", "test": "flow cytometry on unstimulated A431 cells, 10 conjugate concentrations", "procedure": "(§2) Approximately 2.5×10⁵ A431 squamous cell carcinoma cells were plated in a final volume of 50 μL FACS buffer (phosphate buffered saline, 1% fetal bovine serum, 5 mM EDTA) in 96-well plates. 50 μL 2× Zombie Violet (BioLegend) were added to each well, and the plates were incubated 20-30 minutes at room temperature, protected from light. After incubation, 150 μL FACS buffer were added to each well. The plates were centrifuged at 500×g for 5 minutes. The supernatant was removed, and the cell pellet were resuspended in 200 μL FACS buffer. The wash procedure was repeated for a total of 2-3 washes. […] After the cells were incubated with the primary anti-PD-L1 antibody 1 hour on ice, protected from light, 150 μL FACS buffer were added to each well. The plates were then centrifuged, the supernatant was removed, and the cells were resuspended in 250 μL FACS buffer three times. After the third wash, the cells were resuspended in 100 μL goat anti-human IgG-Alexa Fluor 488 secondary antibody, and incubated for 30 minutes on ice, protected from light. After 3 washes as previously described, the cells were resuspended in 200 μL FACS buffer. The cells were then analyzed using a CytoFLEX flow cytometer."}, "[3]": {"target": "T2, human PD-L1 expressed on cells", "test": "cell-based or functional assay"}, "[4]": {"target": "T2, human PD-L1 expressed on cells", "test": "flow cytometry, PD-L1-expressing CHO cells, MFI (FITC)", "procedure": "Wild-type (wt) Chinese hamster ovary (CHO) cells (ATCC) and CHO cells engineered to express huPD-L1 (BPS Bioscience) were seeded at 200,000 cells in 50 μL FACS buffer (PBS containing 1% FBS and 5 mM EDTA) per well of a 96-well plate. Cell viability was assessed by adding 50 μL 2×Zombie Violet (BioLegend). Dead cell controls were also prepared and 2×Zombie violet was added. After incubating 20-30 minutes at room temperature, protected from light, 150 μL FACS buffer were added to each well. The plates were centrifuged, and the supernatant was aspirated. […] The plates were incubated 30 minutes on ice, protected from light. 150 μL FACS buffer were then added to each well and the plate was centrifuged. The supernatant was removed and the cells were washed three times in 200 μL FACS buffer. […] The cells were incubated 30 minutes on ice, protected from light. 150 μL FACS buffer were then added to each well and the plate was centrifuged. Supernatant was removed and the cells were washed twice with 200 μL FACS buffer. The cells were then resuspended in FACS buffer and analyzed by CytoFLEX using the appropriate channels. After gating for whole, single, live cells, the MFI in the APC channel (or FITC channel for human control samples) was normalized to the signal from hybridoma media alone (or isotype control for human control). MFI fold over media alone was determined for each clone supernatant tested."}, "[5]": {"target": "T3, 6xHis-tagged cyPD-L1 (cynomolgus monkey, UniProt Q9NZQ7 19-238 (human entry))", "T3 construct": "The assay text says only '6xHis-tagged cyPD-L1'; also called cynomolgus PD-L1; not shown: 6xHis tag", "T3 sequence (Q9NZQ7 other isoform, or with tags, fused parts or gaps)": "as the sequence (Q9NZQ7 19-238) above, with A33T, A34S, S62N, R68Q, Q82R, F173L, T185A, T192I, H215L counted along it", "test": "ELISA, plate-coated 6xHis cyPD-L1, OD 450 nm", "procedure": "as §1"}, "[6]": {"target": "T2, human PD-L1 expressed on cells", "test": "flow cytometry on unstimulated A431 cells, ratio of EC50 values", "procedure": "as §2"}, "[7]": {"target": "T2, human PD-L1 expressed on cells", "test": "flow cytometry, IFN-γ-stimulated BxPC3 cells, MFI (FITC)"}, "[8]": {"target": "T2, human PD-L1 expressed on cells", "test": "flow cytometry, IFN-γ-stimulated A431 cells, MFI (FITC)"}, "[9]": {"target": "T2, human PD-L1 expressed on cells", "test": "cell-based or functional assay", "remark": "listed apart in the source"}, "[10]": {"target": "T2, human PD-L1 expressed on cells", "test": "flow cytometry, CHO-hPD-L1 cells, MFI (FITC)"}, "[11]": {"target": "T4, PD-L1-His (Acro Cat PDL-H5229) (human, UniProt Q9NZQ7 19-238)", "T4 construct": "also called human PD-L1 (SPR analyte); not shown: His tag", "T4 sequence (Q9NZQ7 19-238 limits assumed)": "as the sequence (Q9NZQ7 19-238) above", "test": "SPR (Biacore 4000) as in Example 3, conjugate captured, PD-L1-His analyte, 37° C.", "procedure": "(§3) The binding affinities of the generated antibodies to human PD-L1 were determined by surface plasmon resonance. […] PD-L1-His (Acro Cat PDL-H5229) was tested for binding in a 3-fold titration series up to 100 nM. Data were collected in HBS-P (pH 7.4) at 37° C. and 25° C.\n(§4) The binding affinities of the generated anti-PD-L1 conjugates were determined by surface plasmon resonance, as described in Example 3."}, "[12]": {"target": "T4, PD-L1-His (Acro Cat PDL-H5229)", "test": "SPR (Biacore 4000) as in Example 3, conjugate captured, PD-L1-His analyte, 25° C.", "procedure": "as §3, §4"}, "[13]": {"target": "T2, human PD-L1 expressed on cells", "test": "cell-based or functional assay", "remark": "listed apart in the source"}, "[14]": {"target": "T5, human PD-L2 (RD Systems 9075-PL) (human, UniProt Q9BQ51 20-219)", "T5 sequence (looked up)": "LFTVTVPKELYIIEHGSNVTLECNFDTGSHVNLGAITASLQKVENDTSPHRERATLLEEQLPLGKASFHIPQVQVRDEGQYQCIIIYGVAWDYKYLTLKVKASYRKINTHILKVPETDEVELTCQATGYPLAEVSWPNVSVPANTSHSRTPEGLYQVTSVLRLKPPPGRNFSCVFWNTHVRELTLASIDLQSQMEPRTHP", "test": "ELISA, plate-coated human PD-L2 (1 µg/mL), OD 450 nm, B7 ligand specificity panel", "procedure": "as §1\n(§5) Briefly, wells of a 96-well plate (Corning 3690) were incubated with 30 μL human PD-L1 (RD Systems 9049-B7), human PD-L2 (RD Systems 9075-PL), human B7-1/CD80 (RD Systems 9050-B1), human B7-2/CD86 (RD Systems 9090-B2), human B7-H2 (RD Systems 8206-B7), or human B7-H3 (RD Systems 1949-B3), at a concentration of 1 μg/mL in PBS, overnight at 4C, to coat the wells with ligand. After washing and blocking steps, 30 μL of antibody at 8 concentrations ranging from 1 ng/mL to 3 mg/mL were added to the plate and incubated at room temperature for 1 hr. Bound human antibody was detected as described above."}, "[15]": {"target": "T4, PD-L1-His (Acro Cat PDL-H5229)", "test": "SPR (Biacore 4000), antibody captured on anti-human CM4 chip, PD-L1-His analyte, 25° C.", "procedure": "as §3"}, "[16]": {"target": "T1, 6xHis-tagged huPD-L1", "test": "ELISA, plate-coated human PD-L1 (1 µg/mL), OD 450 nm, B7 ligand specificity panel", "procedure": "as §1, §5"}, "[17]": {"target": "T3, 6xHis-tagged cyPD-L1", "test": "ELISA, plate-coated 6xHis cyPD-L1, OD 450 nm", "procedure": "as §1\n(§6) Anti-PD-L1 antibodies, described in Example 1A and manufactured substantially as described in Example 1B, were tested for to huPD-L1 and cyPD-L1 by ELISA substantially as described in Example 1A, using 12 dilutions of antibody ranging from 1 ng/ml to 3 mg/mL.", "remark": "listed apart in the source"}, "[18]": {"target": "T4, PD-L1-His (Acro Cat PDL-H5229)", "test": "SPR (Biacore 4000), antibody captured on anti-human CM4 chip, PD-L1-His analyte, 37° C.", "procedure": "as §3"}, "[19]": {"target": "T1, 6xHis-tagged huPD-L1", "test": "ELISA, plate-coated 6xHis huPD-L1, OD 450 nm", "procedure": "as §1, §6", "remark": "listed apart in the source"}, "[20]": {"target": "T2, human PD-L1 expressed on cells", "test": "flow cytometry on unstimulated A431 cells (MFI against antibody concentration)", "procedure": "as §2"}}, "note": "Like-named read-outs stand apart in the source and are kept apart here.", "data": [{"binder": "1P9-IR700 (antibody, V domains shown, IRDye 700DX (IR700) attached via NHS ester; sites not stated; IRDye 700DX (IR700) attached via NHS ester; sites not stated; DAR 2.5 per antibody, also called 1P9-IR700 conjugate; anti-PD-L1-IR700 conjugate) VH: EVQLVESGGGLVQPGGSLRLSCAASGFTFSTYWMSWVRQAPGKGLEWVANIKQDGGERYYVDSVKGRFTISRDNAKSSLYLQMNSLRAEDTALYYCARLRLYSDYEDYWGQGTLVTVSS VL: DIQMTQSPSSVSASVGDRVTITCRASQGISSWLAWYQQKPGKAPKLLIYSVSSLQSGVPSRFSGSGSGTDFTLTISSLQPEDSATYYCQQANSLPPTFGGGTKVEIK", "values": [{"measurement": "EC50", "setting": "[1]", "result": 0.0636, "unit": "µg/mL"}, {"measurement": "EC50", "setting": "[2]", "result": 0.0129, "unit": "µg/mL"}, {"measurement": "EC50 of photoimmunotherapy-induced killing of A431 cells (Cell Tox Green, 128 J/cm^2)", "setting": "[3]", "result": 0.0124, "unit": "µg/mL"}, {"measurement": "EC50", "setting": "[4]", "result": 0.0156, "unit": "µg/mL"}, {"measurement": "EC50", "setting": "[5]", "result": 0.0542, "unit": "µg/mL"}, {"measurement": "fold potency against avelumab-IR700", "setting": "[6]", "result": "~23", "unit": "fold"}, {"measurement": "EC50", "setting": "[7]", "result": 0.0439, "unit": "µg/mL"}, {"measurement": "EC50", "setting": "[8]", "result": 0.046, "unit": "µg/mL"}, {"measurement": "EC50 of luminescence (RLU), PD-1:PD-L1 Blockade Bioassay (PD-L1 aAPC/CHO-K1 cells with PD-1 Effector Jurkat NFAT-luciferase cells)", "setting": "[9]", "result": 0.161, "unit": "µg/mL"}, {"measurement": "EC50", "setting": "[10]", "result": 0.0151, "unit": "µg/mL"}, {"measurement": "Kd", "setting": "[11]", "result": 0.97, "unit": "nM"}, {"measurement": "koff", "setting": "[11]", "result": 0.00038, "unit": "s⁻¹"}, {"measurement": "kon", "setting": "[11]", "result": 390000, "unit": "M⁻¹ s⁻¹"}, {"measurement": "Kd", "setting": "[12]", "result": 0.26, "unit": "nM"}, {"measurement": "koff", "setting": "[12]", "result": "5.4e-05", "unit": "s⁻¹"}, {"measurement": "kon", "setting": "[12]", "result": 210000, "unit": "M⁻¹ s⁻¹"}]}, {"binder": "1P4 (antibody, V domains shown, Recombinant full-length human antibody expressed in CHO K1 GS KO cells, with wild-type human Fc; also called anti-PD-L1 antibody 1P4; Unconj; 1P4) VH: QVQLVESGGGVVQPGRSLRLSCAASGFTFSNYGMHWVRQAPGKGLEWVSLILYDGSNKYYADSVKGRFTISRDNSKNTLYLQMNSLRAEDTAVYYCARDRVWLDVWGKGTTVTVSS VL: not shown", "values": [{"measurement": "EC50 of luminescence (RLU), PD-1:PD-L1 Blockade Bioassay (PD-L1 aAPC/CHO-K1 cells with PD-1 Effector Jurkat NFAT-luciferase cells)", "setting": "[13]", "result": 0.25, "unit": "µg/mL"}, {"measurement": "EC50", "setting": "[14]", "result": 5.76, "unit": "µg/mL"}, {"measurement": "Kd", "setting": "[15]", "result": 18, "unit": "nM"}, {"measurement": "koff", "setting": "[15]", "result": 0.0045, "unit": "s⁻¹"}, {"measurement": "kon", "setting": "[15]", "result": 250000, "unit": "M⁻¹ s⁻¹"}, {"measurement": "EC50", "setting": "[4]", "result": 0.0457, "unit": "µg/mL"}, {"measurement": "EC50", "setting": "[16]", "result": 0.478, "unit": "µg/mL"}, {"measurement": "EC50", "setting": "[17]", "result": 0.0306, "unit": "µg/mL"}, {"measurement": "Kd", "setting": "[18]", "result": 27, "unit": "nM"}, {"measurement": "koff", "setting": "[18]", "result": 0.0097, "unit": "s⁻¹"}, {"measurement": "kon", "setting": "[18]", "result": 360000, "unit": "M⁻¹ s⁻¹"}, {"measurement": "EC50", "setting": "[19]", "result": 0.0399, "unit": "µg/mL"}, {"measurement": "EC50", "setting": "[20]", "result": 0.0415, "unit": "µg/mL"}]}]}
